# Results: the supplement of paper PMC9732359
# ± gives the uncertainty stated by the source.
# Test: protein stability index of a GFP-peptide fusion (yeast GPS) (PSI 1-4); higher = more stable; sorted into four equal gates, so the index is relative within each strain
# In short: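 The protein stability index of a peptide was calculated by multiplying its read frequency in each gate by that gate's number and adding the products. The peptides were tiled 17-residue stretches of yeast proteins, fused downstream of GFP on a Cherry-expressing plasmid and carried in yeast as a pooled library. Mid-log cultures in leucine-free medium were sorted into four equal gates by GFP/Cherry ratio, and each gate's plasmids were PCR-amplified and Illumina-sequenced.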
sequence,measurement,setting,value
DEGMESIEMEEETDDED [RRI2],protein stability index,san1∆,3.26 ± 0.18
same,protein stability index,ubr1∆,3.35 ± 0.14
DEHNELMRQALAIKDSK [RPO21],protein stability index,doa10∆,2.61 ± 0.05
same,protein stability index,pdr5∆,2.93 ± 0.063
same,protein stability index,san1∆,2.29 ± 0.058
same,protein stability index,ubr1∆,2.91 ± 0.044
DEINTAQDKWHLLPAFL [RET1],protein stability index,doa10∆,3.51 ± 0.16
same,protein stability index,pdr5∆,3.31 ± 0.13
same,protein stability index,san1∆,3.29 ± 0.07
DEKVTILVDSLTGNQLP [SWI1],protein stability index,doa10∆,2.76 ± 0.057
same,protein stability index,pdr5∆,2.72 ± 0.064
same,protein stability index,san1∆,2.9 ± 0.04
same,protein stability index,ubr1∆,2.95 ± 0.046
DELELEDAIHIALLTLK [PRE8],protein stability index,doa10∆,3.04 ± 0.076
same,protein stability index,pdr5∆,3.11 ± 0.065
same,protein stability index,san1∆,3.07 ± 0.062
same,protein stability index,ubr1∆,3.15 ± 0.087
DELETKAEKKVELHGKR [PRP8],protein stability index,doa10∆,2.84 ± 0.19
same,protein stability index,pdr5∆,2.95 ± 0.17
same,protein stability index,san1∆,3.4 ± 0.26
same,protein stability index,ubr1∆,2.63 ± 0.18
DELITEGNEKLAAVPAA [RPP2A],protein stability index,doa10∆,2.71 ± 0.09
same,protein stability index,pdr5∆,2.92 ± 0.099
same,protein stability index,san1∆,2.74 ± 0.083
same,protein stability index,ubr1∆,2.78 ± 0.09
DESDSENDIEIKGPEFK [YLR335W/NUP2],protein stability index,doa10∆,2.88 ± 0.11
same,protein stability index,pdr5∆,2.92 ± 0.21
same,protein stability index,san1∆,3.03 ± 0.13
same,protein stability index,ubr1∆,2.96 ± 0.095
DETTVPSYYYYVDPETT [ROX3],protein stability index,doa10∆,2.99 ± 0.08
same,protein stability index,pdr5∆,3.04 ± 0.072
same,protein stability index,san1∆,3.01 ± 0.049
same,protein stability index,ubr1∆,3.25 ± 0.065
DEVITEGQADIDMESDV [POP7],protein stability index,doa10∆,3.18 ± 0.068
same,protein stability index,pdr5∆,3.17 ± 0.058
same,protein stability index,san1∆,3.33 ± 0.057
same,protein stability index,ubr1∆,3.22 ± 0.048
DFILSLLHHVSELDSND [YJL039C/NUP192],protein stability index,doa10∆,1.93 ± 0.071
same,protein stability index,pdr5∆,1.88 ± 0.064
same,protein stability index,san1∆,1.42 ± 0.11
same,protein stability index,ubr1∆,2.4 ± 0.054
DFKNEESLSEEHASLLV [MED8],protein stability index,doa10∆,3.35 ± 0.11
same,protein stability index,pdr5∆,3.12 ± 0.16
same,protein stability index,san1∆,3.08 ± 0.06
same,protein stability index,ubr1∆,3.26 ± 0.063
DFLLSDWNKRFSHLAGG [BRR2],protein stability index,doa10∆,2.71 ± 0.053
same,protein stability index,pdr5∆,2.82 ± 0.055
same,protein stability index,san1∆,2.96 ± 0.065
same,protein stability index,ubr1∆,2.85 ± 0.048
DFPELKPYKQVKQIAPA [FAS2],protein stability index,doa10∆,2.29 ± 0.066
same,protein stability index,pdr5∆,2.46 ± 0.069
same,protein stability index,san1∆,2.58 ± 0.07
same,protein stability index,ubr1∆,2.66 ± 0.057
DFSLRYISNLLYGVTIC [REC8],protein stability index,doa10∆,2.13 ± 0.039
same,protein stability index,pdr5∆,1.71 ± 0.041
same,protein stability index,san1∆,1.83 ± 0.074
same,protein stability index,ubr1∆,1.5 ± 0.027
DGAGGDNEVQRTMLELI [RPT1],protein stability index,doa10∆,3.6 ± 0.16
same,protein stability index,pdr5∆,2.95 ± 0.13
same,protein stability index,san1∆,3.44 ± 0.11
same,protein stability index,ubr1∆,3.36 ± 0.066
DGIFSSKTDNIEDPNLS [YMR153W/NUP53],protein stability index,doa10∆,2.59 ± 0.086
same,protein stability index,pdr5∆,2.2 ± 0.092
same,protein stability index,san1∆,2.69 ± 0.096
same,protein stability index,ubr1∆,2.55 ± 0.095
DGIHYILNHIGQLTGIY [PRP8],protein stability index,doa10∆,1.67 ± 0.065
same,protein stability index,pdr5∆,1.55 ± 0.073
same,protein stability index,san1∆,1.14 ± 0.12
same,protein stability index,ubr1∆,1.67 ± 0.078
DGKLEPSTRSNFILEVF [YJL039C/NUP192],protein stability index,doa10∆,1.63 ± 0.081
same,protein stability index,pdr5∆,1.61 ± 0.067
same,protein stability index,san1∆,1.92 ± 0.14
same,protein stability index,ubr1∆,1.33 ± 0.069
DGKLIDISGTMSGGGNH [SMC4],protein stability index,doa10∆,3.42 ± 0.11
same,protein stability index,pdr5∆,3.4 ± 0.11
same,protein stability index,san1∆,3.54 ± 0.075
same,protein stability index,ubr1∆,3.6 ± 0.088
DGTAQLSNNKTDEEEQL [YJR042W/NUP85],protein stability index,doa10∆,2.77 ± 0.25
same,protein stability index,pdr5∆,3.16 ± 0.14
same,protein stability index,san1∆,3.27 ± 0.15
same,protein stability index,ubr1∆,3.18 ± 0.098
DGTGVRVIVAGTLDINP [FAS1],protein stability index,doa10∆,2.36 ± 0.068
same,protein stability index,pdr5∆,2.87 ± 0.071
same,protein stability index,san1∆,2.99 ± 0.065
same,protein stability index,ubr1∆,2.59 ± 0.061
DGVTHALYPQEARLRNL [RPB2],protein stability index,doa10∆,3.22 ± 0.27
same,protein stability index,pdr5∆,3.06 ± 0.22
same,protein stability index,san1∆,3.23 ± 0.13
DHASIRRGYQVYREVCA [CYT1],protein stability index,doa10∆,1.87 ± 0.06
same,protein stability index,pdr5∆,1.5 ± 0.052
same,protein stability index,san1∆,1.27 ± 0.09
same,protein stability index,ubr1∆,1.71 ± 0.036
DHFIHLRNLHMKRMVAQ [SNF12],protein stability index,doa10∆,2.78 ± 0.063
same,protein stability index,pdr5∆,2.52 ± 0.083
same,protein stability index,san1∆,2.77 ± 0.062
same,protein stability index,ubr1∆,2.45 ± 0.047
DHLKLVSLFSNLRHERN [YIL149C/MLP2],protein stability index,doa10∆,2.41 ± 0.092
same,protein stability index,pdr5∆,2.67 ± 0.19
same,protein stability index,san1∆,2.5 ± 0.26
same,protein stability index,ubr1∆,2.44 ± 0.097
DHSWFLLIGCKLDQDDE [CSI1],protein stability index,doa10∆,1.54 ± 0.11
same,protein stability index,pdr5∆,1.95 ± 0.096
same,protein stability index,san1∆,3.03 ± 0.12
same,protein stability index,ubr1∆,2.34 ± 0.064
DIDDELNELETLIKKKQ [SMC2],protein stability index,doa10∆,3.31 ± 0.16
same,protein stability index,pdr5∆,3.11 ± 0.1
same,protein stability index,san1∆,2.99 ± 0.078
same,protein stability index,ubr1∆,3.24 ± 0.078
DIDDILKKGEQKTQELN [ISW2],protein stability index,doa10∆,3.31 ± 0.22
same,protein stability index,pdr5∆,3.21 ± 0.1
same,protein stability index,san1∆,3.44 ± 0.099
same,protein stability index,ubr1∆,3.56 ± 0.092
DIEEGPITSKSWEEGTR [MCD1],protein stability index,pdr5∆,2.92 ± 0.19
same,protein stability index,san1∆,2.99 ± 0.15
DIEQLEYSRDCFCEDHC [RPB3],protein stability index,doa10∆,3.1 ± 0.064
same,protein stability index,pdr5∆,2.54 ± 0.052
same,protein stability index,san1∆,2.92 ± 0.066
same,protein stability index,ubr1∆,2.61 ± 0.065
DINVELFPVAAQDSLTV [RPB8],protein stability index,doa10∆,1.33 ± 0.24
same,protein stability index,pdr5∆,1.82 ± 0.11
same,protein stability index,san1∆,1.16 ± 0.23
same,protein stability index,ubr1∆,1.94 ± 0.069
DIPFFPSSEKPNIRTMS [SSN2],protein stability index,san1∆,3.1 ± 0.22
DISAAIVHSSDGHLQFL [DLS1],protein stability index,doa10∆,2.92 ± 0.056
same,protein stability index,pdr5∆,2.85 ± 0.068
same,protein stability index,san1∆,3.01 ± 0.048
same,protein stability index,ubr1∆,2.8 ± 0.078
DISAMQPVNPKPFLKGL [SMX3],protein stability index,doa10∆,3.12 ± 0.067
same,protein stability index,pdr5∆,3.18 ± 0.068
same,protein stability index,san1∆,3.2 ± 0.051
same,protein stability index,ubr1∆,3.22 ± 0.053
DITDGKDYHTLANNVES [RPS18A],protein stability index,doa10∆,3.21 ± 0.052
same,protein stability index,pdr5∆,3.31 ± 0.048
same,protein stability index,san1∆,3.22 ± 0.042
same,protein stability index,ubr1∆,3.22 ± 0.04
DITSDQLLQRLNDMNTE [SMC3],protein stability index,doa10∆,3.46 ± 0.16
same,protein stability index,san1∆,3.24 ± 0.13
same,protein stability index,ubr1∆,3.17 ± 0.12
DIVPYFLKHNGEEDAVD [RPN1],protein stability index,doa10∆,3.26 ± 0.12
same,protein stability index,pdr5∆,3.27 ± 0.18
same,protein stability index,san1∆,2.95 ± 0.17
same,protein stability index,ubr1∆,3.22 ± 0.094
DIYFKLKKLEKEYELLT [RPT3],protein stability index,doa10∆,2.74 ± 0.074
same,protein stability index,pdr5∆,2.51 ± 0.081
same,protein stability index,san1∆,2.29 ± 0.14
same,protein stability index,ubr1∆,1.98 ± 0.057
DKDAFIPKLKPAPINSL [SNU114],protein stability index,doa10∆,2.81 ± 0.069
same,protein stability index,pdr5∆,2.88 ± 0.063
same,protein stability index,san1∆,2.83 ± 0.05
same,protein stability index,ubr1∆,2.84 ± 0.054
DKDVKAKYETSILEHSG [FAS2],protein stability index,doa10∆,3.36 ± 0.058
same,protein stability index,pdr5∆,3.33 ± 0.065
same,protein stability index,san1∆,3.23 ± 0.052
same,protein stability index,ubr1∆,3.37 ± 0.064
DKGAVGPNNFIWPAEDA [MED4],protein stability index,doa10∆,3.51 ± 0.25
same,protein stability index,pdr5∆,3.43 ± 0.24
same,protein stability index,ubr1∆,3.23 ± 0.15
DKINKYSLIRETNGYDP [SNF5],protein stability index,doa10∆,1.51 ± 0.086
same,protein stability index,pdr5∆,1.62 ± 0.12
same,protein stability index,san1∆,1.92 ± 0.2
same,protein stability index,ubr1∆,1.23 ± 0.19
DKLKDIVGQTSRTVTPA [ITC1],protein stability index,doa10∆,3.22 ± 0.059
same,protein stability index,pdr5∆,3.13 ± 0.046
same,protein stability index,san1∆,3.19 ± 0.047
same,protein stability index,ubr1∆,2.96 ± 0.052
DKLLKRLKEKGSRVLIF [ISW2],protein stability index,doa10∆,1.35 ± 0.042
same,protein stability index,pdr5∆,1.61 ± 0.059
same,protein stability index,san1∆,1.36 ± 0.1
same,protein stability index,ubr1∆,1.36 ± 0.052
DKNSGVKSEVDVQVDAE [ITC1],protein stability index,doa10∆,2.1 ± 0.064
same,protein stability index,pdr5∆,2.15 ± 0.073
same,protein stability index,san1∆,1.79 ± 0.12
same,protein stability index,ubr1∆,2.97 ± 0.065
DKPLLKAGRAFHKYRLK [RPL2A],protein stability index,doa10∆,2.96 ± 0.085
same,protein stability index,pdr5∆,3.07 ± 0.058
same,protein stability index,san1∆,2.16 ± 0.059
same,protein stability index,ubr1∆,2.04 ± 0.061
DKQARKQRTKKEDKSEA [SNF2],protein stability index,doa10∆,3.64 ± 0.14
same,protein stability index,pdr5∆,3.54 ± 0.13
same,protein stability index,san1∆,3.25 ± 0.077
same,protein stability index,ubr1∆,3.29 ± 0.11
DLCSSVLSQFERSYPSE [ROX3],protein stability index,doa10∆,2.58 ± 0.094
same,protein stability index,pdr5∆,3.42 ± 0.17
same,protein stability index,san1∆,2.98 ± 0.074
same,protein stability index,ubr1∆,3.17 ± 0.086
DLEEAYATQVKTDNTVD [RPT3],protein stability index,doa10∆,2.19 ± 0.18
same,protein stability index,pdr5∆,2.58 ± 0.091
same,protein stability index,san1∆,2.47 ± 0.14
same,protein stability index,ubr1∆,2.79 ± 0.1
DLFTHLWNQWLKLNTSL [SRP68],protein stability index,doa10∆,1.76 ± 0.048
same,protein stability index,pdr5∆,2.05 ± 0.047
same,protein stability index,san1∆,2.27 ± 0.066
same,protein stability index,ubr1∆,1.83 ± 0.038
